In US20240034807A1:
Changes are numbered by the printed parent chain. Values belong to the binder of their own block, whether it stands above or below them.

Molecular target: human mesothelin polypeptide (human) (UniProt Q13421)
Experiment: ELISA and SPR (Blitz) on a human mesothelin polypeptide

B1: Clone #3 VH domain (protein)
VH: KVQLQQWGAGLLKPSETLSLTCAVYGGSFSGYYWSWIRQPPGKGLEWIGEINHSGSTNYNPSLKSRVTISVDTSKNQFSLKLSSVTAADTALYYCARTYRPHSYYYYGMDVWGQGTTVTVSS
- EC50: 38 nM

B3: Clone #8 VH domain (protein)
VH: EVQLVESGGGVVQPGRSLRLSCAASGFTFSSYAMHWVRQAPGKGLEWIGSIRHDGNTYYNPSLKSRVSVSRDNAKNTLYLQMDSLRAEDTAMYYCAKYGCSSISCSFDYWGQGTLVTVSS
- EC50: 6.5 nM

B4: Clone #7 VH domain (protein)
VH: EVQLVESGGGVVQPGRSLRLSCAASGFTFSSYAMHWVRQAPGKGLEWIGTIRYDGNTYYNPSLKSLVTISRDDSTNTLYLQMNSLRAEDTALYYCAKYGCSSTSCSFDYWGQGTLVTVSS
- EC50: 16.4 nM

B5: Clone #6 VH domain (protein)
VH: QVQLQQWGAGLLKPSETLSLTCAVYGGSFSGYYWSWIRQPPGKGLEWIGEINHSGSTNYNPSLKSRVTISVDTSKNQFSLKLSSVTAADTATYYCARSYRTVTYYKAYFQHWGQGTLVTVSS
- EC50: 1000 nM

B6: Clone #5 VH domain (protein)
VH: EVQLVESGGGVVQPGRSLRLSCAASGLTFSSYAMHWVRQAPGKGLEWIGTIRYDGNTYYNPSLKSLVTISRDDSTNTLYLQMNSLRAEDTATYYCARRRYYDSSGYRGAAFDIWGQGTLVTVSS
- EC50: 298 nM

B10: Clone #4 VH domain (protein)
VH: EVQLVESGGGVVQPGRSLRLSCAASGFTFSSYAMHWVRQAPGKGLEWVSSISGNSLYKYYADSVKGRFTISRDDSTNTLYLQMNSLRAEDTATYYCTRHWAVGNWGQGTLVTVSS
- EC50: 1.7 nM

B11: Clone #1 VH domain (protein)
VH: EVQLVESGGGVVQPGRSLRLSCAASGFTFSSYAMHWVRQAPGKALEWIGSISYSGSTYYNPSLKSRVTVSRDNAKNTLYLQMDSLRAEDTAMYYCAKYYCSGGTCYYFDYWGQGTLVTVSS
- EC50: 1000 nM

B12: Clone #2 VH domain (protein)
VH: EVQLVESGGGVVQPGRSLRLSCAASGFTFSSYAMHWVRQAPGKGLEWIGYIYTSGSTNYNPSLKSRVTISRDDSTNTLYLQMNSLRAEDTATYYCARTPRGRDSSGYYQSPHAFDIWGQGTLVTVSS
- EC50: 1.6 nM

More lines, now with the values ahead:

- EC50: 107 nM
B2: Clone #10 VH domain (protein)
VH: B3 VH with S68T

- EC50: 98 nM
B7: Clone #11 VH domain (protein)
VH: EVQLVESGGGVVQPGRSLRLSCAASGFTFSSYAMHWVRQAPGKGLEWVSGITRSGGATFYAGSVKGRFTISRDDSTNTLYLQMNSLRAEDTAVYYCSRDPRRVDYWGQGTLVTVSS

- EC50: 944 nM
B8: Clone #9 VH domain (protein)
VH: EVQLVESGGGVVQPGRSLRLSCAASGFTFSSYAMHWVRQAPGKGLEWVSGISYNGDHTYYADSVKGRSTVSRDNAKNTLYLQMDSLRPEDTAMYYCTRNYFFDYWGQGTLVTVSS

- EC50: 1.3 nM
B9: Clone #12 VH domain (protein)
VH: EVQLVETGGDLAQPGESLRLSCVASGFTFSSSWMTWIRQAPGKGLEWVSSLSGRSEKTFYADSVKGRFTVSRDNAKNTLYLQMDSLRPEDTATYYCASGWALVWGQGTLVTVSS
